Measurements reported in patent publication US20230331809A1.

Molecular target: CD40 (Cluster of Differentiation 40) on cells (UniProt P25942)
Sequence (P25942 21-277 limits assumed): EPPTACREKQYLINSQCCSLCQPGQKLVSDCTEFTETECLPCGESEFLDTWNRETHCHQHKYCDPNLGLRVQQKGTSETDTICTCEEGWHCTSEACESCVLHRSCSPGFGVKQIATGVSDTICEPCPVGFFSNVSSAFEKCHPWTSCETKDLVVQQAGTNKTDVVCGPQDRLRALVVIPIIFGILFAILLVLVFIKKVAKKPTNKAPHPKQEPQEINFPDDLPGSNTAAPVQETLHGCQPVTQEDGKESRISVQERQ

Chain of CD40L (Invivogen), native CD40 binding partner (P29965 113-261 limits assumed): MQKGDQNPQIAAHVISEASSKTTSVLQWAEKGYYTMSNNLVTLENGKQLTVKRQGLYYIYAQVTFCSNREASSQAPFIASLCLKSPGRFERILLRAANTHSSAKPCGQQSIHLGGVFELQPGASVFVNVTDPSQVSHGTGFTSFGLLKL

CD40L (Invivogen), native CD40 binding partner (from UniProt P29965 113-261) (ligand)
EC50, CD40 RGA, FcgRIIB CHOK1: 0.81 µg/mL | EC50, CD40 RGA, HEK Blue only: 0.43 µg/mL | EC50, CD40 RGA, WT CHOK1: 0.44 µg/mL | Fold wrt WT (EC50, relative to v32477 - uPa), CD40 RGA, FcgRIIB CHOK1: 16.6 fold | Fold wrt WT (EC50, relative to v32477 - uPa), CD40 RGA, HEK Blue only: 2.76 fold | Fold wrt WT (EC50, relative to v32477 - uPa), CD40 RGA, WT CHOK1: 3.19 fold
